Laboratory results from paper PMC2141736.

Target: Schistosoma japonicum glutathione S-transferase (GST) (Schistosoma japonicum)
Experiment: cross-linking

Schistosoma japonicum glutathione S-transferase (GST) (enzyme)
stoichiometry N: 2
